The numbers were not newly measured in patent publication US20250052762A1, “PEPTIDASE CLEAVABLE SUBSTRATES AND METHODS OF IDENTIFICATION AND USE THEREOF” (Alaunus Biosciences, Inc., priority 2020, published 2025), which cites them from elsewhere.

Entries after “also recorded” stand apart in the source; their conditions may differ. Square brackets hold non-standard residues; d marks the D form. Ends that are not written are not given here. * marks the point of attachment. MeOSuc = COC(=O)CCC(=O)*; 2Abz = Nc1ccccc1C(=O)O; dnp = not defined here; SBn = c1ccc(CS*)cc1

In data set [1] the target is granzyme B (Homo sapiens, UniProt P10144). The conditions noted are these: for measured catalytic efficiency: candidate natural substrates, fluorescence assay (Boivin et al., 2012).
In data set [2] the target is MMP14 (Homo sapiens, UniProt P50281). The settings on record: for Michaelis constant (KM): magnitude in words.
For data set [3], the target named is T1, neutrophil elastase (Homo sapiens, UniProt P08246).
T1 sequence (P08246 30-267): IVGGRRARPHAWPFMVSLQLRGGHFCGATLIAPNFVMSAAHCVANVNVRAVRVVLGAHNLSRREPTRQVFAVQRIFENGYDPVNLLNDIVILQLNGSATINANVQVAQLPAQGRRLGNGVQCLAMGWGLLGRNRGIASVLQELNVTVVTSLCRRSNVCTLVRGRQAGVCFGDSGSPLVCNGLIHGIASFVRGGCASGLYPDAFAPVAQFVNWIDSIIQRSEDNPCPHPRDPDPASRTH

Setting [4] is: magnitude in words, top-most active substrates in BRENDA database.
Setting [5] is: top-most active substrates in BRENDA database.

Sequence of granzyme B (P10144 21-247): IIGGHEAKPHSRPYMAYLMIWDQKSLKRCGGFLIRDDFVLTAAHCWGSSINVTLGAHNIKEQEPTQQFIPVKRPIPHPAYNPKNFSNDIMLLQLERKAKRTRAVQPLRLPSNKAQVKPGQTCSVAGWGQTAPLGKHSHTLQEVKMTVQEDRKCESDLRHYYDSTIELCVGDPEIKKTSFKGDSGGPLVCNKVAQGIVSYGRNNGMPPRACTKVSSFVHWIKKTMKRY

In the case of “2-aminobenzoyl-IEPDSSMESK-dnp ([2Abz]IEPDSSMESK-dnp; reading uncertain; also: printed as 2-aminobenzoyl-IEPDSSMESK-dnp) [fluorescent tool substrate for granzyme B]”, in data set [1] (estimated from KM and kcat, fluorescence assay (Sun et al., 2001)), the estimated catalytic efficiency was 758 mM⁻¹ s⁻¹. Besides, the “Michaelis constant (KM)” value in data set [1] (setting [4]) is reported as “micromolar”. For the same molecule, in data set [1] (setting [5]), the “turnover number (kcat)” value was 1 to 5 s⁻¹.

With “collagen I alpha-1: collagen I alpha-1 chain, natural substrate of MMP14”, in data set [2] (BRENDA database), the “Michaelis constant (KM)” value is “piocomolar; also recorded: picomolar”.

In the case of “collagen I alpha-2: collagen I alpha-2 chain, natural substrate of MMP14”, the “Michaelis constant (KM)” value in data set [2] (BRENDA database) is recorded as “piocomolar; also recorded: picomolar”.

Consider “methoxycoumarin-4-acetyl-Lys-Pro-Leu-Gly-Leu-Lys (2,4-dinitrophenyl)-Ala-Arg-NH2 ({methoxycoumarin‑4‑acetyl}-KPLGLK(2,4‑dinitrophenyl)AR-NH2; not fully specified; printed as methoxycoumarin-4-acetyl-Lys-Pro-Leu-Gly-Leu-Lys (2,4-dinitrophenyl)-Ala-Arg-NH₂)”, for which the catalytic efficiency in data set [2] (measured by fluorescence assay, BRENDA database) is 550 to 2429 mM⁻¹ s⁻¹. For the same molecule, the turnover number in data set [2] (reported in BRENDA database) is 0.33 to 6.8 s⁻¹.

As for “methoxysuccinyl-Ala-Ala-Pro-Val-thiobenzyl ester (MeOSuc-AAPV-SBn; SMILES COC(=O)CCC(=O)N[C@@H](C)C(=O)N[C@@H](C)C(=O)N1CCC[C@H]1C(=O)N[C@H](C(=O)SCc1ccccc1)C(C)C) [fluorescent tool substrate for neutrophil elastase]”, the estimated catalytic efficiency in data set [3] (estimated from KM and kcat, fluorescence assay (Stein et al., 1987)) is 9565 mM⁻¹ s⁻¹. The “Michaelis constant (KM)” value in data set [3] (setting [4]) is reported as “micromolar”. Further, the “turnover number (kcat)” value in data set [3] (setting [5]) was “up to 22 s^−1”.

B1: biglycan: candidate natural substrate of granzyme B (protein, UniProt P21810 38-368, looked up)
Biglycan: DEEASGADTSGVLDPDSVTPTYSAMCPFGCHCHLRVVQCSDLGLKSVPKEISPDTTLLDLQNNDISELRKDDFKGLQHLYALVLVNNKISKIHEKAFSPLRKLQKLYISKNHLVEIPPNLPSSLVELRIHDNRIRKVPKGVFSGLRNMNCIEMGGNPLENSGFEPGAFDGLKLNYLRISEAKLTGIPKDLPETLNELHLDHNKIQAIELEDLLRYSKLYRLGLGHNQIRMIENGSLSFLPTLRELHLDNNKLARVPSGLPDLKLLQVVYLHSNNITKVGVNDFCPMGFGVKRAYYNGISLFNNPVPYWEVQPATFRCVTDRLAIQFGNYKK
B1: the measured catalytic efficiency in data set [1] is 1.7 mM⁻¹ s⁻¹.

B2: decorin: candidate natural substrate of granzyme B (protein, UniProt P07585 31-359, looked up)
Decorin: DEASGIGPEVPDDRDFEPSLGPVCPFRCQCHLRVVQCSDLGLDKVPKDLPPDTTLLDLQNNKITEIKDGDFKNLKNLHALILVNNKISKVSPGAFTPLVKLERLYLSKNQLKELPEKMPKTLQELRAHENEITKVRKVTFNGLNQMIVIELGTNPLKSSGIENGAFQGMKKLSYIRIADTNITSIPQGLPPSLTELHLDGNKISRVDAASLKGLNNLAKLGLSFNSISAVDNGSLANTPHLRELHLDNNKLTRVPGGLAEHKYIQVVYLHNNNISVVGSSDFCPPGHNTKKASYSGVSLFSNPVQYWEIQPSTFRCVYVRSAIQLGNYK
Take B2: the measured catalytic efficiency in data set [1] was 1 mM⁻¹ s⁻¹.

B3: beta-glycan: candidate natural substrate of granzyme B (protein, UniProt Q03167 21-851, looked up)
Transforming growth factor …: GPEPGALCELSPVSASHPVQALMESFTVLSGCASRGTTGLPQEVHVLNLRTAGQGPGQLQREVTLHLNPISSVHIHHKSVVFLLNSPHPLVWHLKTERLATGVSRLFLVSEGSVVQFSSANFSLTAETEERNFPHGNEHLLNWARKEYGAVTSFTELKIARNIYIKVGEDQVFPPKCNIGKNFLSLNYLAEYLQPKAAEGCVMSSQPQNEEVHIIELITPNSNPYSAFQVDITIDIRPSQEDLEVVKNLILILKCKKSVNWVIKSFDVKGSLKIIAPNSIGFGKESERSMTMTKSIRDDIPSTQGNLVKWALDNGYSPITSYTMAPVANRFHLRLENNAEEMGDEEVHTIPPELRILLDPGALPALQNPPIRGGEGQNGGLPFPFPDISRRVWNEEGEDGLPRPKDPVIPSIQLFPGLREPEEVQGSVDIALSVKCDNEKMIVAVEKDSFQASGYSGMDVTLLDPTCKAKMNGTHFVLESPLNGCGTRPRWSALDGVVYYNSIVIQVPALGDSSGWPDGYEDLESGDNGFPGDMDEGDASLFTRPEIVVFNCSLQQVRNPSSFQEQPHGNITFNMELYNTDLFLVPSQGVFSVPENGHVYVEVSVTKAEQELGFAIQTCFISPYSNPDRMSHYTIIENICPKDESVKFYSPKRVHFPIPQADMDKKRFSFVFKPVFNTSLLFLQCELTLCTKMEKHPQKLPKCVPPDEACTSLDASIIWAMMQNKKTFTKPLAVIHHEAESKEKGPSMKEPNPISPPIFHGLDTLTVMGIAFAAFVIGALLTGALWYIYSHTGETAGRQQVPTSPPASENSSAAHSIGSTQSTPCSSSSTA
For the molecule B3, the measured catalytic efficiency in data set [1] was 5.9 mM⁻¹ s⁻¹.
